How the values were obtained:
Test in all cases: FRET or BRET
[1] = biological target: Mpc54-YFP (S. cerevisiae) (UniProt Q08550)
[2] = biological target: YFP-Cnm67 (S. cerevisiae) (UniProt P53865)
[3] = biological target: Spo21-YFP (S. cerevisiae) (UniProt Q12411)
[4] = biological target: YFP-Spo21 (S. cerevisiae) (UniProt Q12411)

Sequence of UniProt P53865 (P53865 whole entry): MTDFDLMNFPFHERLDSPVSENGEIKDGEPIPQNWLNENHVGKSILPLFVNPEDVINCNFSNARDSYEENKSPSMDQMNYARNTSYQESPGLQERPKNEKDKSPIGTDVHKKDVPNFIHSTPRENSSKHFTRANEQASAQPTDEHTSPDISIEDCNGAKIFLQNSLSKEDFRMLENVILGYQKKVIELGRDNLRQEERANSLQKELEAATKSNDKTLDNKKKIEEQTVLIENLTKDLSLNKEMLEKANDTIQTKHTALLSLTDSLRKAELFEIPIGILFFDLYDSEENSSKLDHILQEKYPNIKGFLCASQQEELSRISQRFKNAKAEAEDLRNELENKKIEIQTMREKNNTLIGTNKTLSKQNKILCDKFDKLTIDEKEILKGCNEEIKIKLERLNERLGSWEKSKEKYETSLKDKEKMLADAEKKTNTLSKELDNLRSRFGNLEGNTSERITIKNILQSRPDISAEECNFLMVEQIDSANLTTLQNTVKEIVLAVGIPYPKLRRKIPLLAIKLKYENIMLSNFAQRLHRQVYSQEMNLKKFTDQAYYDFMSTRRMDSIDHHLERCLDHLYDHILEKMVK
Sequence of UniProt Q08550 (Q08550 whole entry): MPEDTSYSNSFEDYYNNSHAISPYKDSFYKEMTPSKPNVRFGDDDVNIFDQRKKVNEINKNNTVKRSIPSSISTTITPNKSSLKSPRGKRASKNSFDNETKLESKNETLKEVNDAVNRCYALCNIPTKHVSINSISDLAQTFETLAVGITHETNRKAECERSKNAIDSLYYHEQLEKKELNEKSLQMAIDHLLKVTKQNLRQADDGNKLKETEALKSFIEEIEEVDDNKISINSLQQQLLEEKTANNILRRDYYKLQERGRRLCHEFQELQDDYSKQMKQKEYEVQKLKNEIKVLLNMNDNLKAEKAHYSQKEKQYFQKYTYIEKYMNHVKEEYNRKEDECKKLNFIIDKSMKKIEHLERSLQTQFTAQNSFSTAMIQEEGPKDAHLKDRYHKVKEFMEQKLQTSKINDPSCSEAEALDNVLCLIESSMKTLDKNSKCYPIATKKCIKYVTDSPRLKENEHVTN

| FretR [1] | FretR [2] | FretR [3] | FretR [4] | Substance |
| --- | --- | --- | --- | --- |
| 1.24 | 1.47 | 1.34 | – | Spo21-CFP (from UniProt Q12411 1-609) (natural protein) |
| 1.26 | 1.35 | – | – | Mpc54-CFP (from UniProt Q08550 1-464) (natural protein) |
| – | – | – | 1.23 | CFP-Mpc54 (from UniProt Q08550 1-464) (natural protein) |

— paper PMC2965686
